Assays:
bone marrow osteoclasts = test: Osteoclast resorption assay; format: cell-based, mice; conditions: WT osteoclasts, inhibitors 10 μM or muRANK-Fc 10 μg/mL daily day 9 to 12
Description: Bone marrow osteoclasts were generated from 6 to 8 week old WT and RonTK−/− mice. Briefly, bone marrow was isolated from hindlimb bones and plated in α-MEM media containing 10% heat-inactivated fetal bovine serum (FBS, Sigma, St. Louis, Mo.), 100 units/mL penicillin-streptomycin (Hyclone), and 33 ng/mL human macrophage colony-stimulating factor (hM-CSF) (PeproTech, Rocky Hill, N.J.) for 24 hours. Non-adherent cells were collected and frozen for later use. To assess resorption activity, bone marrow precursor cells were thawed and seeded at a density of 1×10^5 cells per well in BioCoat Osteologic slides (BD Biosciences, San Jose, Calif.) in α-MEM media containing 10% FBS and antibiotics. After adhering overnight, media was removed and media containing 33 ng/mL hM-CSF and 9 ng/mL muRANKL (R & D systems, Minneapolis, Minn.) was added. The medium was changed every 3 days depending on acidification, and the assay was terminated as indicated. Recombinant human MSP was prepared and added daily as indicated. Cells were removed with 6% bleach and slides were viewed microscopically using phase-contrast with 20× magnification. Osteolytic resorption area within 5 representative fields was determined using Image J software, experiments were performed in triplicate. Recombinant MSP was prepared as follows (to be described in detail elsewhere): Concentrated, serum-free media from an MCF7 cell line engineered to overexpress MSP was cleaved with kallikrein (Invitrogen, Waltham, Mass.; 4 ng of kallikrein/1 μg of supernatant protein at 37° C. for 2.5 hours). The reaction was diluted to 20 mL with 10 mM sodium phosphate, pH 7.4 and loaded onto a 5 mL HiTrap heparin column (Millipore, Billerica, Mass.) equilibrated with 20 mL of 10 mM sodium phosphate, pH 7.4, at a rate of 1 mL/min. The column was washed with 10 mL of 10 mM sodium phosphate, pH 7.4, at a rate of 1 mL/min. […]

PyMT-MSP tumor cells = test: Intratibial PyMT-MSP tumor-induced osteolysis; format: in vivo, mice
Excerpt: (§1) All procedures involving mice and experimental protocols were approved by the Institutional Animal Care and Use Committee (IACUC) of the University of Utah. The RonTK−/− mice which reside on the FVB background, were crossed with NOD.SCID mice for an immune-compromised mouse model. As a control, wild-type FVB mice were also crossed with NOD.SCID mice. The STK−/− mice, which are on a C57BL/6 background, were compared to wild-type C57BL/6 mice as controls. Mice for all experiments were 6 to 8 weeks of age. For intratibial injections, 1×10^5 (PyMTor DU4475) or 3×10^5 (MDA-MB-231) tumor cells were resuspended in 10 μL matrigel and injected into the right tibia of anesthetized female FVB (PyMT) or NOD.SCID mice carrying various alleles of RON. Osteolysis was assessed by X-ray radiography. Dissected hindlimbs from mice sacrificed at the final time point in each experiment were placed in the Kodak In-vivo Multispectral Imaging System FX and exposed to X-ray radiography at 35 kV for 100 sec. Excess tumor tissue was removed from the bones prior to X-ray. Osteolytic lesions were quantified using Image J software (NCBI). All images were compared to the contralateral leg as an internal control.
Hindlimb bones were excised from mice at the time of sacrifice and bones were fixed in 10% neutral-buffered formalin, decalcified in Formical-2000 (Decal Corporation, Tallman, N.Y.) for 8 days and embedded in paraffin for hematoxylin and eosin (H & E) or immunohistochemical staining. Osteoclast number was assessed as TRAP^+ multinucleated cells containing 4 or more nuclei and reported as TRAP^+ cells per field. Three sections per mouse and 5 fields per section were used for quantification with fields representing the entire length of the tibia. Tumor proliferation rate was reported as the number of cells which were positive for phospho-H3 staining compared to the number of unstained cells per field expressed as a percent. Three sections per mouse and 5 fields per section were used for quantification with analysis being restricted to within the bone marrow cavity. […]

PyMT control tumor cells = test: Intratibial PyMT control tumor-induced osteolysis; format: in vivo, mice
Excerpt: as §1
For in vivo experiments, the OSI-296 inhibitor was dissolved in 40% Trappsol with 0.01 M HCl, and mice were treated at a concentration of 200 mg/kg daily by oral gavage. […]

B1: muRANK-Fc: murine RANKL antagonist (Amgen) (protein)
chain: VTPPCTQERHYEHLGRCCSRCEPGKYLSSKCTPTSDSVCLPCGPDEYLDTWNEEDKCLLHKVCDAGKALVAVDPGNHTAPRRCACTAGYHWNSDCECCRRNTECAPGFGAQHPLQLNKDTVCTPCLLGFFSDVFSSTDKCKPWTNCTLLGKLEAHQGTTESDVVCSSSMTLRRPPKEAQAYLPS
modifications: left off: a dimerising Fc or GST
Bone marrow osteoclasts
  MSP-induced increase in osteoclast resorption (resorption area): only slightly reduced
PyMT-MSP tumor cells; Ron TK−/− mice, treatment began 3 days post tumor cell injection
  MSP-driven osteolysis in Ron TK−/− mice: did not reduce this further
PyMT-MSP tumor cells; TRAP staining of bone sections
  TRAP+ osteoclasts in tumor-bearing bones: lack of TRAP+ cells
PyMT-MSP tumor cells; WT mice, treatment began 3 days post tumor cell injection
  osteolysis from PyMT-MSP tumors: significant osteolysis even in the presence of the RANKL antagonist
PyMT control tumor cells; WT mice, treatment began 3 days post injection, sacrificed 42 days post injection
  osteolysis from PyMT control tumors (no MSP): significantly impaired
PyMT control tumor cells; caliper measurements
  tumor growth of PyMT control bone lesions: no significant effect on tumor growth
